Article PMC3939855

T1: IRF3 (endogenous, MEFs) (mouse (endogenous in MEFs)), P70671
T1 chain: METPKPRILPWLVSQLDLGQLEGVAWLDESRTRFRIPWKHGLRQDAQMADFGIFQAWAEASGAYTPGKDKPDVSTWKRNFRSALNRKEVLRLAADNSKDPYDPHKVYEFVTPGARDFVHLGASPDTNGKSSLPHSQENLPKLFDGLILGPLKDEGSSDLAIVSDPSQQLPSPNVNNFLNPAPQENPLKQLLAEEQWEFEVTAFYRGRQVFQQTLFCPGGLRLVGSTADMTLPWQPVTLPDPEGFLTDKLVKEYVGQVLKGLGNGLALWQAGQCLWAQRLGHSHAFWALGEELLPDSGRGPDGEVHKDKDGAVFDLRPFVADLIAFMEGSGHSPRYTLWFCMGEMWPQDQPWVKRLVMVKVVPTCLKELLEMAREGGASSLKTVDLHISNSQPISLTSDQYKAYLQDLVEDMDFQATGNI

T2: IRF3 (endogenous, 293T cells) (human (endogenous in 293T)), Q14653
T2 chain: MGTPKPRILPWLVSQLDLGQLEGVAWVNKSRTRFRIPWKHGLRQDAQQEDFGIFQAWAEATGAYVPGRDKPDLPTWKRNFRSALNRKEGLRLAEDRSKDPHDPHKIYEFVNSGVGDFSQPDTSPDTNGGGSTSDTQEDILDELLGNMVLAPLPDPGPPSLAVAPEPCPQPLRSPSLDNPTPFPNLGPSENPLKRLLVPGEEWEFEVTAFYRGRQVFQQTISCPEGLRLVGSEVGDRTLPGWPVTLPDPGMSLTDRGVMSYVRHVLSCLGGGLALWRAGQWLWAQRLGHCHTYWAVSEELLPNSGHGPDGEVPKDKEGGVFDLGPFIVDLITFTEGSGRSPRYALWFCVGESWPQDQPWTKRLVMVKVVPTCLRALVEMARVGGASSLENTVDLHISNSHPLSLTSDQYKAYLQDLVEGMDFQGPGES


Tests used:
[1] = molecular target: T1, IRF3 (endogenous, MEFs) (mouse …); assay: native gel or EMSA; conditions: remark: other sources report otherwise
[2] = molecular target: T2, IRF3 (endogenous, 293T cells) (human …); assay: native gel or EMSA; conditions: remark: other sources report otherwise

| Binder | stoichiometry N [1] | stoichiometry N [2] |
| --- | --- | --- |
| IRF3 (endogenous, MEFs), P70671 1-419 (natural protein) METPKPRILPWLVSQLDLGQLEGVAWLDESRTRFRIPWKHGLRQDAQMADFGIFQAWAEASGAYTPGKDKPDVSTWKRNFRSALNRKEVLRLAADNSKDPYDPHKVYEFVTPGARDFVHLGASPDTNGKSSLPHSQENLPKLFDGLILGPLKDEGSSDLAIVSDPSQQLPSPNVNNFLNPAPQENPLKQLLAEEQWEFEVTAFYRGRQVFQQTLFCPGGLRLVGSTADMTLPWQPVTLPDPEGFLTDKLVKEYVGQVLKGLGNGLALWQAGQCLWAQRLGHSHAFWALGEELLPDSGRGPDGEVHKDKDGAVFDLRPFVADLIAFMEGSGHSPRYTLWFCMGEMWPQDQPWVKRLVMVKVVPTCLKELLEMAREGGASSLKTVDLHISNSQPISLTSDQYKAYLQDLVEDMDFQATGNI | 2 |  |
| IRF3 (endogenous, 293T cells), Q14653 1-427 (natural protein) MGTPKPRILPWLVSQLDLGQLEGVAWVNKSRTRFRIPWKHGLRQDAQQEDFGIFQAWAEATGAYVPGRDKPDLPTWKRNFRSALNRKEGLRLAEDRSKDPHDPHKIYEFVNSGVGDFSQPDTSPDTNGGGSTSDTQEDILDELLGNMVLAPLPDPGPPSLAVAPEPCPQPLRSPSLDNPTPFPNLGPSENPLKRLLVPGEEWEFEVTAFYRGRQVFQQTISCPEGLRLVGSEVGDRTLPGWPVTLPDPGMSLTDRGVMSYVRHVLSCLGGGLALWRAGQWLWAQRLGHCHTYWAVSEELLPNSGHGPDGEVPKDKEGGVFDLGPFIVDLITFTEGSGRSPRYALWFCVGESWPQDQPWTKRLVMVKVVPTCLRALVEMARVGGASSLENTVDLHISNSHPLSLTSDQYKAYLQDLVEGMDFQGPGES |  | 2 |
